Experimental data taken from patent US20180244777A1 (NUMAB THERAPEUTICS, published 2018).
Changes are numbered by the printed parent chain. Like-named read-outs stand apart in the source and are kept apart here.

T1: linear 15mer peptides derived from cynomolgus CD3ε residues 5-20 (Set 4) (cynomolgus)
T1 construct: also called peptides spanning residues 5-20
T1 peptide: EEMGSITQTPYQVSIS

T2: linear 15mer peptide derived from cynomolgus CD3ε residues 2-16 (wild type of the substitution library, Set 2) (cynomolgus)
T2 construct: Probed as a saturation mutagenesis library on a peptide array
T2 peptide: DGNEEMGSITQTPYQ

T3: linear 15mer peptide derived from human CD3ε residues 2-16 (wild type of the substitution library, Set 1) (human)
T3 construct: Probed as a saturation mutagenesis library on a peptide array
T3 peptide: DGNEEMGGITQTPYK

T4: linear 15mer peptides derived from human CD3ε residues 5-20 (Set 3) (human)
T4 construct: also called peptides spanning residues 5-20
T4 peptide: EEMGGITQTPYKVSIS

T5: mouse IL23R (mouse, UniProt Q8K4B4 24-374, limits assumed)
T5 sequence (looked up): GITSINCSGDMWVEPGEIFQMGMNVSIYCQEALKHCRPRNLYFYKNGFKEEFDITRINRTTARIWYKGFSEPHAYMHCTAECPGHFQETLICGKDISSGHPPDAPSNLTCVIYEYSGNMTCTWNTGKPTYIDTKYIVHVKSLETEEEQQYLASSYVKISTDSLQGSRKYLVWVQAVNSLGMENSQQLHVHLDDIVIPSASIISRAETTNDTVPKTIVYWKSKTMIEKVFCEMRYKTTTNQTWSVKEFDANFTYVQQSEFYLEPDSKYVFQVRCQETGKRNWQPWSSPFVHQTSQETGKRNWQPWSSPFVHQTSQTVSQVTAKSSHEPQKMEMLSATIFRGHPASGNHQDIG

B1: clone-02 (antibody, V domains shown)
VH: QSLEESGGRLVTPGTPLTLTCTVSGFPLSAYAMIWVRQAPGKGLEWIGMIIRSGTVYYANWAKGRFTISKTSTTVDLKITSPTTEDTATYFCARRHYNADGYPIGIGDLWGPGTLVTVSS
VL: AQVLTQTPSSVSAVVGGTVTISCQSSESVYSNNRLSWFQQKPGQPPKLLIYSASTLASGVPSRFKGSGSGTQFTLTITDLECDDAATYFCQGEFSCSSVDCFSFGGGTEVVVKG
notes: Recombinant rabbit IgG; also called Clone 2
B2: clone-06 (antibody, V domains shown)
VH: QSVEESGGRLVTPGTPLTLTCTVSGFPLSSYAMIWVRQAPGKGLEWIGMILRAGNIYYASWVKGRVTISKTSTTVDLKITSPTTEDTATYFCARRHYNREGYPIGIGDLWGPGTLVTVSS
VL: AQVLTQTPSSVSAAVGGTVTISCQSSESVYNNKRLSWFQQKPGQPPKQLIYTASSLASGVPSRFKGSGSGTQFTLTISDLECDDAATYYCQGEFTCSNADCFTFGGGTEVVVKG
notes: Recombinant rabbit IgG; also called Clone 6
B3: clone-03 (antibody, V domains shown)
VH: QSLEESGGRLVTPGTPLTLTCTVSGFPLNRYAMLWVRQAPGKGLEWIGLITRADKKYYASWAKGRFTISKTSTTVDLEITGPTTEDTATYFCARRHYNTDGYPIAIGDLWGPGTLVTVSS
VL: B2 VL with S26N, S28N, V29I, N31S, K33N, K47N, T52S, T95N, S97N, N98S
notes: Recombinant rabbit IgG; also called Clone 3
B4: PRO386 (bispecific antibody)
light: DIQMTQSPSSLPASLGDRVTINCQASQDISNYLNWYQQKPGKAPKLLIYYTNKLADGVPSRFSGSGSGRDSSFTISSLESEDIGSYYCQQYYNYPWTFGPGTKLEIKRRTVAAPSVFIFPPSDEQLKSGTASVVCLLNNFYPREAKVQWKVDNALQSGNSQESVTEQDSKDSTYSLSSTLTLSKADYEKHKVYACEVTHQGLSSPVTKSFNRGECGGGGSGGGGSHMDIQMTQSPSSLSASVGDRVTITCQASENIYSFLAWYQQKPGKAPKLLIYSASKLAAGVPSRFSGSGSGTDFTLTISSLQPEDFATYYCQQTNRYSNPDIYNVFGQGTKLTVLGGGGGSGGGGSGGGGSGGGGSEVQLVESGGGLVQPGGSLRLSCAASGIDFNSNYYMCWVRQAPGKGLEWIGCIYVGSHVNTYYANWAKGRFTISRDNSKNTVYLQMNSLRAEDTAVYYCATSGSSVLYFKFWGQGTLVTVSS
heavy: EVQLVESGGGLVQPGKSLKLSCEASGFTFSGYGMHWVRQAPGRGLESVAYITSSSINIKYADAVKGRFTVSRDNAKNLLFLQMNILKSEDTAMYYCARFDWDKNYWGQGTMVTVSSASTKGPSVFPLAPSSKSTSGGTAALGCLVKDYFPEPVTVSWNSGALTSGVHTFPAVLQSSGLYSLSSVVTVPSSSLGTQTYICNVNHKPSNTKVDKKVEPKSCGGGGSGGGGSHMDIQMTQSPSSLSASVGDRVTITCQASENIYSFLAWYQQKPGKAPKLLIYSASKLAAGVPSRFSGSGSGTDFTLTISSLQPEDFATYYCQQTNRYSNPDIYNVFGQGTKLTVLGGGGGSGGGGSGGGGSGGGGSEVQLVESGGGLVQPGGSLRLSCAASGIDFNSNYYMCWVRQAPGKGLEWIGCIYVGSHVNTYYANWAKGRFTISRDNSKNTVYLQMNSLRAEDTAVYYCATSGSSVLYFKFWGQGTLVTVSS
notes: Heterodimer; 2C11 Fab with an anti-IL23R scFv 14-11-D07-sc01 on the C-terminus of each chain; also called Tribody; bispecific, trivalent Fab-scFv fusion surrogate molecule

Assays:
[1] = molecular target: T6, human CD3ε expressed on the cell surface of T cells (Jurkat cells; human CD8+ T cells) (human, UniProt P07766 23-207); assay: cell-based or functional assay
[2] = molecular target: T7, human heterodimeric single-chain CD3εγ extracellular domain (human, UniProt P07766 23-126; P09693 23-116); assay: SPR, rabbit IgG captured, human single-chain CD3εγ ECD injected
T7 construct: extracellular domain; Produced in-house; also called scCD3γε; human CD3ge
Description: (§1) Binding affinities of monoclonal rabbit anti-CD3 antibodies were measured by surface plasmon resonance (SPR) using a MASS-1 SPR instrument (Sierra Sensors). […] Rabbit monoclonal antibodies were captured by the immobilized anti-rabbit IgG antibody. Two-fold serial dilutions of human heterodimeric single-chain CD3εγ extracellular domain (produced in-house) ranging from 90 to 2.81 nM were injected into the flow cells for 3 min and dissociation of the protein from the IgG captured on the sensor chip was allowed to proceed for 5 min. After each injection cycle, surfaces were regenerated with two injections of 10 mM glycine-HCl. The apparent dissociation (kd) and association (ka) rate constants and the apparent dissociation equilibrium constant (KD) were calculated with the MASS-1 analysis software (Analyzer, Sierra Sensors) using one-to-one Langmuir binding model.

[3] = molecular target: T6, human CD3ε expressed on the cell …; assay: cell-based ELISA on Jurkat cells, CD3ε-deficient Jurkat subtracted
Description: (§2) Jurkat cells (clone E6-1), a human T cell line, were seeded at 300,000 cells/well in round bottom 96-well plates in 100 μl phosphate-buffered saline (PBS) containing 10% FBS. Five-fold serial dilutions of anti-CD3 rabbit monoclonal antibodies ranging from 90 nM to 0.0058 nM were added to the plates in 100 μl PBS containing 10% FBS. […] This secondary antibody was linked to the enzyme horseradish peroxidase (HRP). HRP activity was measured by addition of TMB substrate (3,3′,5,5′-tetramethylbenzidine, KPL, Cat. No. 53-00-00), which in a colorimetric reaction is processed by the HRP. The color intensity of the processed substrate is directly proportional to the amount of anti-CD3 antibody bound to Jurkat cells. To quantify color intensity, light absorbance (optical density) at the respective wave length was measured using a microtiter plate reader (Infinity reader M200 Pro, Tecan).
(§3) To correct for unspecific binding of the antibodies to unknown components presented on the cell surface of Jurkat cells, a CD3ε deficient derivative of the Jurkat T cell line (J.RT3-T3.5) was used. Binding of the monoclonal antibodies to this cell line was measured as described above for the Jurkat cells. For quantification of specific binding to Jurkat cells, the optical density for binding to the negative control was subtracted from the optical density for binding to Jurkat cells. Data were analyzed using a four-parameter logistic curve fit using the Softmax Data Analysis Software (Molecular Devices), and the molar concentration of anti-CD3 antibody required to reach 50% binding (EC₅₀, mid-OD of the standard curve) was derived from dose response curves.

[4] = molecular target: T1, linear 15mer peptides derived from …; assay: peptide array ELISA, Set 4
Description: (§4) The binding of the antibodies to each of the synthesized peptides was tested by ELISA. The peptide arrays were incubated with primary antibody solution (overnight at 4° C.). After washing, the peptide arrays were incubated with a 1/1000 dilution of an antibody peroxidase conjugate (SBA, cat.nr.2010-05) for one hour at 25° C. After washing, the peroxidase substrate 2,2′-azino-di-3-ethylbenzthiazoline sulfonate (ABTS) and 2 μl/ml of 3% H₂O₂ were added. After one hour, the color development was measured. The color development was quantified with a charge coupled device (CCD)—camera and an image processing system.

[5] = molecular target: T8, cynomolgus monkey heterodimeric single-chain CD3εγ extracellular domain (cynomolgus monkey, UniProt Q95LI5 22-117; Q95LI7 23-113); assay: SPR, rabbit IgG captured, cyno single-chain CD3εγ ECD injected
T8 sequence (Q95LI7 other isoform, or with tags, fused parts or gaps): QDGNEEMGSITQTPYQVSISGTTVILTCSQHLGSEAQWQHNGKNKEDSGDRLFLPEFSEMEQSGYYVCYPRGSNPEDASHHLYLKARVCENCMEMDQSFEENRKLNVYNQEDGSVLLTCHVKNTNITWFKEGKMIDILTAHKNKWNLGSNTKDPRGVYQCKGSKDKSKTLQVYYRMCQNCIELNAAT

[6] = molecular target: T8, cynomolgus monkey heterodimeric …; assay: SPR; ratio of the KDs for cyno and human single-chain CD3εγ
[7] = molecular target: T2, linear 15mer peptide derived from …; assay: 15mer peptide array ELISA
[8] = molecular target: T3, linear 15mer peptide derived from human …; assay: 15mer peptide array ELISA
[9] = molecular target: T9, cynomolgus monkey CD3ε expressed on the surface of HSC-F T cells (cynomolgus monkey, UniProt Q95LI5 22-198); assay: cell-based ELISA on cyno HSC-F T cells
T9 construct: whole, on cells; also called cyno HSC-F T cells
T9 sequence (Q95LI5 22-198): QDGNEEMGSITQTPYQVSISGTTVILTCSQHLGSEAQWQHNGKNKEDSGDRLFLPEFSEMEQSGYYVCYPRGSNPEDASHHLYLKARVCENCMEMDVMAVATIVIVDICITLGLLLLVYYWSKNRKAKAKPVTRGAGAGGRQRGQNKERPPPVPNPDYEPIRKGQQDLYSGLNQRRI

[10] = molecular target: T6, human CD3ε expressed on the cell …; assay: cell-based ELISA on Jurkat cells
Description: as §2, §3

[11] = molecular target: T4, linear 15mer peptides derived from …; assay: peptide array ELISA, Set 3
Description: as §4

[12] = molecular target: T8, cynomolgus monkey heterodimeric …; assay: SPR, rabbit IgG captured, cyno single-chain CD3εγ ECD injected; remark: listed apart in the source
[13] = molecular target: T7, human heterodimeric single-chain CD3εγ …; assay: SPR, rabbit IgG captured, human single-chain CD3εγ ECD injected; remark: listed apart in the source
Description: as §1

mouse IL23R = molecular target: T5, mouse IL23R; assay: SPR
mouse CD3ε = mouse CD3ε (mouse, UniProt P22646 22-108, limits assumed); assay: SPR
Chain of mouse CD3ε (P22646 22-108 limits assumed): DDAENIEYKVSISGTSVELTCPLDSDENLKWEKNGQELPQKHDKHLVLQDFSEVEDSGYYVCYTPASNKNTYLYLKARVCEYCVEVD

Binder | Fold increase in CD69 expression [MFI normalized to neg. ctrl.], 1.25 µg/ml anti-CD3 IgG [1] | Fold increase in CD69 expression [MFI normalized to neg. ctrl.], 5 µg/ml anti-CD3 IgG [1] | Fold increase in CD69 expression [MFI normalized to neg. ctrl.], 20 µg/ml anti-CD3 IgG [1] | Kd [2] | EC50 [3] | binding result [4] | Kd [5] | koff [5] | kon [5] | KD (human)/KD (cyno) [6] | binding result [7] | binding result [8] | EC50 [9] | EC50 [10] | binding result [11] | Kd [12] | Kd [13] | koff [13] | kon [13] | other results
B1 | 3.3 fold | 4.6 fold | 7.4 fold | 0.304 nM | 0.71 nM | no binding | 3.86 nM | 0.00258 s⁻¹ | 668000 M⁻¹ s⁻¹ | 13 | binds | binds | 3.82 nM | 0.71 nM | no binding | 3.86 nM | 0.304 nM | 0.000264 s⁻¹ | 869000 M⁻¹ s⁻¹ | 
B2 | 2.7 fold | 5.1 fold | 5.3 fold | 2.23 nM | 0.67 nM | no binding | 8.95 nM | 0.00397 s⁻¹ | 444000 M⁻¹ s⁻¹ | 4 | binds | binds | 1.6 nM | 0.67 nM | no binding | 8.95 nM | 2.23 nM | 0.00138 s⁻¹ | 618000 M⁻¹ s⁻¹ | 
B3 | 2.6 fold | 4.6 fold | 6.6 fold | 0.905 nM | 1.45 nM | no binding | 11.5 nM | 0.00403 s⁻¹ | 350000 M⁻¹ s⁻¹ | 13 | binds | binds | 23.9 nM | 1.45 nM | no binding | 11.5 nM | 0.905 nM | 0.000498 s⁻¹ | 551000 M⁻¹ s⁻¹ | 
B4 |  |  |  |  |  |  |  |  |  |  |  |  |  |  |  |  |  |  |  | Kd (mouse IL23R): 0.583 nM; koff (mouse IL23R): 0.000533 s⁻¹; kon (mouse IL23R): 915000 M⁻¹ s⁻¹; Kd (mouse CD3ε): 11.5 nM; koff (mouse CD3ε): 0.00196 s⁻¹; kon (mouse CD3ε): 171000 M⁻¹ s⁻¹
